According to patent publication US20090111753A1, “Nogo-A Polypeptide Fragments, Variant Nogo Receptor-1 Polypeptides, and Uses Thereof” (Yale University, priority 2004, published 2009):
Numbering of substitutions follows the chain as printed. Numbers in names are those of the source.

T1: AP fusion protein with the B4C fragment of Amino-Nogo-A fused directly to Nogo-66 (human, UniProt Q9NQC3 1055-1120)
T1 construct: domain: Nogo-66; also called AP-B4C66; AP-B4C-66; not shown: alkaline phosphatase (AP), vector pcAP6
T1 sequence: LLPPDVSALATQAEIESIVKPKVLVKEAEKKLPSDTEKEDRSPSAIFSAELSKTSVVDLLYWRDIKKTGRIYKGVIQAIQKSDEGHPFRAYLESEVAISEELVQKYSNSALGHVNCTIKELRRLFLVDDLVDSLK

T2: AP-Nogo-66 (UniProt Q9NQC3 1055-1120)
T2 construct: domain: Nogo-66; construct described elsewhere (Fournier 2001); also called AP-Ng66; Ng66; not shown: alkaline phosphatase (AP); construct described elsewhere
T2 sequence (looked up): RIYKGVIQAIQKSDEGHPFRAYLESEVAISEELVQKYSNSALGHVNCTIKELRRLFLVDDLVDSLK

T3: AP-fused Amino-Nogo fragment B4C (a.a. 950-1018) (human, UniProt Q9NQC3 950-1018)
T3 construct: also called AmNg B4C; AP-B4C; not shown: alkaline phosphatase (AP), vector pcAP6
T3 sequence: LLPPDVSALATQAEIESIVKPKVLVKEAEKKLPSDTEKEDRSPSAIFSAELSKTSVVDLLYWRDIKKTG

T4: NgR (Homo sapiens, UniProt Q9BZR6)
T4 construct: expressed in transfected cells; host or cells: COS-7
T4 sequence (Q9BZR6 27-447): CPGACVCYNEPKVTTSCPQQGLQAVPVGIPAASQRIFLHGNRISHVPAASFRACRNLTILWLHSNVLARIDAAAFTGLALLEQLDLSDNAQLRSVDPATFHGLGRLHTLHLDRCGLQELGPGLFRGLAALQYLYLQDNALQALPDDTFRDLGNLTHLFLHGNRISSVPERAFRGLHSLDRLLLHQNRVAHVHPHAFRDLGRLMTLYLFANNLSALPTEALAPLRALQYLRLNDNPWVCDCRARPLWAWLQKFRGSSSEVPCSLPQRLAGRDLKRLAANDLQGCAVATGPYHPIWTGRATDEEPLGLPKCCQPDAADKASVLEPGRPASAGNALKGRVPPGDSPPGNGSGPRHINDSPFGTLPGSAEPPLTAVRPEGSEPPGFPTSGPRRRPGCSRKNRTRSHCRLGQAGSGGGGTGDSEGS

B1: human NgR1 alanine mutant 117, 119, 120, 139 (receptor)
chain: CPGACVCYNEPKVTTSCPQQGLQAVPVGIPAASQRIFLHGNRISHVPAASFRACRNLTILWLHSNVLARIDAAAFTGLALLEQLDLSDNAALAAVDPATFHGLGRLHTLHLDACGLQELGPGLFRGLAALQYLYLQDNALQALPDDTFRDLGNLTHLFLHGNRISSVPERAFRGLHSLDRLLLHQNRVAHVHPHAFRDLGRLMTLYLFANNLSALPTEALAPLRALQYLRLNDNPWVCDCRARPLWAWLQKFRGSSSEVPCSLPQRLAGRDLKRLAANDLQGCAVATGPYHPIWTGRATDEEPLGLPKCCQPDAADKASVLEPGRPASAGNALKGRVPPGDSPPGNGSGPRHINDSPFGTLPGSAEPPLTAVRPEGSEPPGFPTSGPRRRPGCSRKNRTRSHCRLGQAGSGGGGTGDSEGSGALPSLTCSLTPLGLALVLWTVLGPC
B2: human NgR1 alanine mutant 67, 68, 71 (receptor)
chain: B1 chain with N41A, R42A, H45A, A91Q, A93R, A94S, A113R
B3: human NgR1 alanine mutant 111, 113, 114 (receptor)
chain: B1 chain with D85A, S87A, D88A, A91Q, A93R, A94S, A113R
B4: human NgR1 alanine mutant 114, 117, 163 (receptor)
chain: B1 chain with D88A, A93R, A94S, A113R, D137A
B5: human NgR1 alanine mutant 182, 186, 210 (receptor)
chain: B1 chain with A91Q, A93R, A94S, A113R, H156A, H160A, H184A
B6: human NgR1 alanine mutant 210, 232, 234 (receptor)
chain: B1 chain with A91Q, A93R, A94S, A113R, H184A, Y206A, F208A
B7: human NgR1 alanine mutant 95, 97, 117, 119, 120, 188, 189 (receptor)
chain: B1 chain with R69A, D71A, A113R, N162A, R163A
B8: human NgR1 alanine mutant 95, 97, 188, 189, 191, 192 (receptor)
chain: B1 chain with R69A, D71A, A91Q, A93R, A94S, A113R, N162A, R163A, S165A, S166A
B9: human NgR1 alanine mutant 67, 68, 95, 97 (receptor)
chain: B1 chain with N41A, R42A, R69A, D71A, A91Q, A93R, A94S, A113R
B10: human NgR1 alanine mutant 202, 205, 227, 250, 277, 279 (receptor)
chain: B1 chain with A91Q, A93R, A94S, A113R, H176A, D179A, R201A, R224A, K251A, R253A
B11: a.a. 877-1018 (AmNg B4): AP fusion protein of Amino-Nogo fragment B4, aa 877-1018 (protein)
chain: SKTDSFSKLAREYTDLEVSHKSEIANAPDGAGSLPCTELPHDLSLKNIQPKVEEKISFSDDFSKNGSATSKVLLLPPDVSALATQAEIESIVKPKVLVKEAEKKLPSDTEKEDRSPSAIFSAELSKTSVVDLLYWRDIKKTG
modifications: left off: large carriers
B12: Amino of NgB: AP fusion protein of Amino-Nogo residues of Nogo-B (protein)
chain: MEDLDQSPLVSSSDSPPRPQPAFKYQFVREPEDEEEEEEEEEEDEDEDLEELEVLERKPAAGLSAAPVPTAPAAGAPLMDFGNDFVPPAPRGPLPAAPPVAPERQPSWDPSPVSSTVPAPSPLSAAAVSPSKLPEDDEPPARPPPPPPASVSPQAEPVWTPPAPAPAAPPSTPAAPKRRGSSGSVVVDLLYWRDIKKTG
modifications: left off: large carriers
notes: AP fusion protein of Amino-Nogo residues of Nogo-B
B13: AP-B4C-66: AP fusion protein with the B4C fragment of Amino-Nogo-A fused directly to Nogo-66 (protein)
chain: T1 sequence
modifications: left off: large carriers

The molecules below were run against T1, AP fusion protein with the B4C fragment … (assay: AP-ligand binding, COS-7). Conditions: not given.

Molecule	binding result
B1	no binding
B2	no binding
B3	no binding
B4	no binding
B5	no binding
B6	no binding
B7	no binding
B8	no binding
B9	no binding
B10	no binding

Each molecule was assayed against T2, AP-Nogo-66 (assay: AP-ligand binding, COS-7). Conditions: not given.

Molecule	binding result
B1	no binding
B2	no binding
B3	no binding
B4	no binding
B5	no binding
B6	no binding
B7	no binding
B8	no binding
B9	no binding
B10	no binding

The molecules below were run against T3, AP-fused Amino-Nogo fragment B4C (a.a. …) (assay: AP-ligand binding, COS-7). Conditions: not given.

Molecule	binding result
B1	no binding
B2	no binding
B3	no binding
B4	no binding
B5	no binding
B6	no binding
B7	no binding
B8	no binding
B9	no binding
B10	no binding

Each molecule was assayed on NgR ligands (assay: Binding of alanine substituted NgR mutants to NgR ligands, summary categories). Conditions: AP-Nogo66, AP-B4C, AP-B4C66, AP-Lingo-1, AP-OMgp and AP-MAG; compared to wild type NgR.
Summary of the method: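 Human NgR1 template; 74 mutants with 1-8 solvent-exposed charged surface residues (within 5 Å) Ala-substituted, plus glycosylation-site mutants and D259N polymorphism. Mutants tested for binding of AP-tagged Nogo66, Amino-Nogo-B4C, B4C66, MAG, OMgp and Lingo-1; each classed as losing all, keeping all, or selective ligand binding.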

Molecule	ligand binding category of NgR mutant (Table II)
B1	No binding
B2	No binding
B3	No binding
B4	No binding
B5	No binding
B6	No binding
B7	No binding
B8	No binding
B9	No binding
B10	No binding

The molecules below were run against T4, NgR (assay: AP fusion protein binding to NgR expressing COS-7 cells). Conditions: AP fused Amino-Nogo fragments in conditioned media on NgR expressing COS-7 cells; 'No binding at' cells continue on the next line: AmNg A 150 nM; a.a. 1000-1018, a.a. 1005-1018, Amino of NgC 25 nM; a.a. 950-1004 50 nM; Amino of NgB 100 nM.
Text: Several alkaline phosphatase (AP) fusion proteins containing various Nogo-A segments derived from regions between the amino terminus and the first hydrophobic segment were examined to identify the mechanism of Amino-Nogo-A action. To generate additional AP fusion proteins, human amino Nogo fragments were amplified and ligated to the pcAP6 vector digested with restriction enzymes EcoRI and XhoI as described (Fournier, A. E., et al., Nature 409:341-346 (2001)). Plasmids were then transfected into HEK293T cells and conditioned media were collected after 7 days. None of these fragments bind with high affinity to non-transfected COS-7 cells. […] This binding is saturable with a Kd indistinguishable from that for AP-Nogo-66 association with NgR (Table I). To better define the region responsible for Amino-Nogo interaction with NgR, a range of truncation mutants of Amino-Nogo were examined as AP fusion proteins. […] In fact, the NgR-interacting segment of Amino-Nogo is fully accounted for in the extreme carboxyl 24 amino acids (aa 995-1018, Amino-Nogo-A-24) (Table I and FIG. 1D). […] We named this domain (aa 995-1013) as Amino-Nogo-A-19.
Binding Kds for AP fused Amino-Nogo fragments were measured by applying conditioned media containing AP fusion protein to NgR expressing COS-7 cells. Bound AP was stained and measured.
It has been recognized that the Amino-Nogo-A protein inhibits non-neuronal cell spreading and axonal outgrowth when the protein is substrate bound (Chen, M. S., et al., Nature 403:434-439 (2000); Fournier, A. E., et al., Nature 409:341-346 (2001)). […] The later domain has been termed Δ20. To determine whether the NgR-interacting aa of Amino-Nogo-A described in Example 1 regulate cell spreading and axonal outgrowth, various fragments were expressed as GST fusion proteins and purified from E. coli. To generate GST fusion proteins, amino Nogo fragments were cloned in pGEX2T (Amersham Pharmacia). Native and soluble GST fusion proteins were expressed and purified as described (GrandPre, T., et al., Nature 403:439-444 (2000)). COS-7 binding assays were done as described (Fournier, A. E., et al., Nature 409:341-346 (2001)). Bound AP to COS-7 cells was measured using NIH image software. Fibroblast spreading and cDRG outgrowth assay were done as described (Fournier, A. E., et al., Nature 409:341-346 (2001)) with some modifications. Briefly, 50 μl of purified GST fusion protein or peptides diluted in PBS was pipetted into polylysine precoated 96 well plates (Becton Dickson Biocoat plates) and dried overnight at room temperature. For fibroblast spreading assay, subconfluent COS-7 cells were then plated for 1 hour in serum containing medium before fixation and staining with rho damine-phalloidin.

Molecule	Kd [nM]	NgR Kd (nM)
B11	9.01 ± 6.36	
B12		No binding

Same assay, conditions: NgR expressing COS-7 cells; FIGS. 6A and 6B

Molecule	Kd for binding of AP-B4C-66 to NgR
B13	subnanomolar

Same assay, conditions: qualitative

Molecule	binding to NgR (COS-7 cells expressing NgR)
B12	fail to associate with NgR-expressing cells
